Reference: paper PMC9445877, “Blockade of TMPRSS2-mediated priming of SARS-CoV-2 by lactoferricin” (Frontiers in Immunology, 2022)
“Also recorded” adds a separate entry of the source.

What was measured:
TMPRSS2 = molecular target: T1, TMPRSS2 (Homo sapiens, UniProt O15393); assay: In vitro proteolysis assay, TMPRSS2, fluorogenic substrate Boc-Gln-Ala-Arg-AMC; format: biochemical
T1 construct: TMPRSS2 (25 nM; recombinant protein produced in mammalian cells; #MBS1193731, MyBioSource, San Diego, CA); purchased MyBioSource, San Diego, CA #MBS1193731; host or cells: mammalian cells
T1 sequence (O15393 256-492 limits assumed): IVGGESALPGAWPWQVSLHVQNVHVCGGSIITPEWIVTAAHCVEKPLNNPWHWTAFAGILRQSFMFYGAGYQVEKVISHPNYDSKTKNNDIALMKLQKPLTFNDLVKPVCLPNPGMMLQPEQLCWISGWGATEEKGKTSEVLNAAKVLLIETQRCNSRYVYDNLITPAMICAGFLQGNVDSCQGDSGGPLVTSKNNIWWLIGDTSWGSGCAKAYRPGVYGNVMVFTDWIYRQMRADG
T1 sequence (O15393 106-255 limits assumed): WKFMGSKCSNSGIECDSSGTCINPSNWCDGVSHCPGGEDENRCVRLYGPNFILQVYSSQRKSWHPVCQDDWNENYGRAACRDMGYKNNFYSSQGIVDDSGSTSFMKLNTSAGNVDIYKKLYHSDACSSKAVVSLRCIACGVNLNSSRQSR
Procedure: (§1) Figure 1 Effect of LF and the LF-derived peptides pLF1-pLF3 on the activity of serine proteases. Proteolytic activities of purified TMPRSS2 (A), plasmin (B), elastase (C), and trypsin (D) were measured with or without peptides pLF1, pLF2, pLF3, LF or the control peptide pCTR at 37°C in Tris-HCl buffer using the fluorogenic substrate Boc-Gln-Ala-Arg-AMC. The reaction was monitored using an ELISA reader for the indicated time intervals.
(§2) The proteolytic activities of plasmin (10 nM; from human plasma; #10602361001, Roche Diagnostics GmbH, Mannheim, Germany), trypsin (10 nM; from bovine pancreas; #T1005, Sigma-Aldrich, St. Louis, MO), elastase (20 nM; from porcine pancreas; #E1250, Sigma-Aldrich) and TMPRSS2 (25 nM; recombinant protein produced in mammalian cells; #MBS1193731, MyBioSource, San Diego, CA) were measured in a Nunc black fluorescence-based cell assay plate (Sigma-Aldrich) in Tris-HCl buffer (20 mM, pH 8.0, 150 mM NaCl). […] The reaction was measured using an ELISA plate reader (Synergy H1 BioTek microplate reader, Winooski, Vermont, U.S., or TECAN GENios, GMI, USA) under the excitation wavelength of 380 nm and the emission wavelength of 460 nm at the indicated time points.

plasmin = molecular target: T2, plasmin (Homo sapiens, UniProt P00747); assay: In vitro proteolysis assay, plasmin; format: biochemical; details: 37°C
T2 construct: purchased Roche Diagnostics GmbH, Mannheim, Germany #10602361001; host or cells: human plasma
T2 sequence (P00747 581-810 limits assumed): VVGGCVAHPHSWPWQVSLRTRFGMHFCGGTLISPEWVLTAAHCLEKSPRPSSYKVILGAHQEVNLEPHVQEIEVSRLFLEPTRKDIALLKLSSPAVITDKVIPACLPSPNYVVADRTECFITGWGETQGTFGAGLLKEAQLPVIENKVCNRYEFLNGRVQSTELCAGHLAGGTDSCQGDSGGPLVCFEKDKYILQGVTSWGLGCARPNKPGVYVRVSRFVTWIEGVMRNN
T2 sequence (P00747 97-580 limits assumed): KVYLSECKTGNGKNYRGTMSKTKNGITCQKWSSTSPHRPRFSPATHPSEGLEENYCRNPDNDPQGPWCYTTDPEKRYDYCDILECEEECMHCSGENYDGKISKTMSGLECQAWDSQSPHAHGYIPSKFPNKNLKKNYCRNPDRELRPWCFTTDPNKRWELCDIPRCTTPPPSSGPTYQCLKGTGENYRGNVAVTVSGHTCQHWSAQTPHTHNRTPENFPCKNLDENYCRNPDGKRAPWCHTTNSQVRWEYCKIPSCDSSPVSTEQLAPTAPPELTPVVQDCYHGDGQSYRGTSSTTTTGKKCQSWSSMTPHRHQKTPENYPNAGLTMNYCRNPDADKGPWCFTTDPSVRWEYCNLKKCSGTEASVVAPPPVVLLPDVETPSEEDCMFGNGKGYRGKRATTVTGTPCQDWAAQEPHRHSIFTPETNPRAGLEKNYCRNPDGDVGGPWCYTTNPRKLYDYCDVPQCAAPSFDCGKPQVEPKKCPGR
Procedure: as §1
as §2, with “points. […]” for “points.”

elastase = assay: In vitro proteolysis assay, elastase; format: biochemical, porcine; details: elastase 20 nM; 37°C, Tris-HCl buffer, Boc-Gln-Ala-Arg-AMC
Procedure: as §1, §2

[1] = system: SARS-CoV-2 infection, Vero cells; format: cell-based, SARS-CoV-2 (African green monkey cells); details: 40 µg/mL, pre-incubation 40-60 min, mean of three independent experiments
[2] = system: SARS-CoV-2 infection, Calu-3 cells; format: cell-based, SARS-CoV-2 (human cells); details: concentration not given, pre-incubation approx. 1 h, four independent experiments
SARS-CoV-2 [3] = format: cell-based; details: summary statement
COVID-19 = details: supplementary LF treatment; cited from earlier work
Excerpt: (§3) The human glycoprotein LF is synthetized by exocrine glands and is present at high concentrations in secretory body fluids, particularly in milk, but also within inflammatory granules of neutrophils. […] This effect was mainly attributed to its immunomodulatory properties ([26]).

SARS-CoV-2 [4] = details: cited from earlier work
Excerpt: as §3

plasminogen = details: cited from earlier work
Excerpt: Since structures of the catalytic domains of serine proteases display a high level of identity ([10]), we have tested the inhibitory effect of LF and three LF-derived synthetic peptides against other serine proteases, including TMPRSS2, elastase and trypsin, in addition to plasmin. […] In contrast, uPA-independent Plg conversion by the bacterial enzyme streptokinase was not affected by LF ([11]). […] Similarly, only pLF1 but neith ...

SARS-CoV-1 = details: cited from earlier work
[5] = cited from earlier work
SARS-CoV-2 [6] = details: cited from earlier work; remark: listed apart in the source
[7] = cited from earlier work; remark: listed apart in the source

B1: LF: human milk glycoprotein lactoferrin; recombinant human LF (L1294, Sigma-Aldrich) (protein, UniProt P02788 1-710, looked up)
chain: MKLVFLVLLFLGALGLCLAGRRRSVQWCAVSQPEATKCFQWQRNMRKVRGPPVSCIKRDSPIQCIQAIAENRADAVTLDGGFIYEAGLAPYKLRPVAAEVYGTERQPRTHYYAVAVVKKGGSFQLNELQGLKSCHTGLRRTAGWNVPIGTLRPFLNWTGPPEPIEAAVARFFSASCVPGADKGQFPNLCRLCAGTGENKCAFSSQEPYFSYSGAFKCLRDGAGDVAFIRESTVFEDLSDEAERDEYELLCPDNTRKPVDKFKDCHLARVPSHAVVARSVNGKEDAIWNLLRQAQEKFGKDKSPKFQLFGSPSGQKDLLFKDSAIGFSRVPPRIDSGLYLGSGYFTAIQNLRKSEEEVAARRARVVWCAVGEQELRKCNQWSGLSEGSVTCSSASTTEDCIALVLKGEADAMSLDGGYVYTAGKCGLVPVLAENYKSQQSSDPDPNCVDRPVEGYLAVAVVRRSDTSLTWNSVKGKKSCHTAVDRTAGWNIPMGLLFNQTGSCKFDEYFSQSCAPGSDPRSNLCALCIGDEQGENKCVPNSNERYYGYTGAFRCLAENAGDVAFVKDVTVLQNTDGNNNEAWAKDLKLADFALLCLDGKRKPVTEARSCHLAMAPNHAVVSRMDKVERLKQVLLHQQAKFGRNGSDCPDKFCLFQSETKNLLFNDNTECLARLHGKTTYEKYLGPQYVAGITNLKKCSTSPLLEACEFLRK
modifications: full-length
TMPRSS2; 37°C, Tris-HCl buffer, Boc-Gln-Ala-Arg-AMC
  inhibition of proteolytic activity of TMPRSS2 (in words): not able to block TMPRSS2 activity; also recorded: neither full-length LF nor pCTR inhibited; also recorded: did not block TMPRSS2 activity; also recorded: neither full-length LF nor other tested peptides derived from LF, nor the control peptide pCTR, significantly reduced
TMPRSS2; Figure 1A inset
  dose dependence of inhibition of TMPRSS2 (in words): no dose-dependent inhibition; also recorded: not by LF
plasmin; Figure 1B inset: S-2251 in PBS
  dose dependence of inhibition of active plasmin (in words): no dose-dependent inhibition; also recorded: not by LF
plasmin; plasmin 10 nM, Tris-HCl buffer, Boc-Gln-Ala-Arg-AMC
  inhibition of proteolytic activity of plasmin (in words): neither full-length LF nor a control peptide (pCTR), was able to inhibit; also recorded: neither full-length LF nor other tested peptides derived from LF, nor the control peptide pCTR, significantly reduced
elastase
  inhibition of proteolytic activity of elastase (in words): neither full-length LF nor other tested peptides derived from LF, nor the control peptide pCTR, significantly reduced
[1]
  inhibition of SARS-CoV-2 infection, Vero cells, 40 µg/mL: ≈ 38%
[2]
  inhibition of SARS-CoV-2 infection, Calu-3 cells: 60-70%
SARS-CoV-2 [3]
  SARS-CoV-2 infection of permissive cells (in words): prevented SARS-CoV-2 infection
COVID-19
  COVID-19 symptoms in clinical study (in words): significantly reduced COVID-19 symptoms
SARS-CoV-2 [4]
  SARS-CoV-2 infection in vitro (in words): found to inhibit SARS-CoV-2 infection in vitro
plasminogen
  binding to plasminogen (in words): binds to Plg via its highly cationic N-terminal region; also recorded: bound to Plg via its highly cationic N-terminal region
  inhibition of plasminogen conversion to plasmin (in words): able to inhibit activation of Plg through hindering the action of urokinase-type plasminogen activator (uPA); also recorded: blocked Plg conversion to the active serine protease plasmin
plasminogen; streptokinase as activator
  uPA-independent plasminogen conversion by streptokinase (in words): not affected
SARS-CoV-1
  SARS-CoV-1 infection (in words): inhibited the SARS-CoV-1 infection
[5]
  binding to heparin and HSPGs (in words): LF binding to both heparin and HSPGs was observed
SARS-CoV-2 [6]
  interferon responses (in words): enhancement of interferon responses
  iron homeostasis (in words): maintenance of iron homeostasis
  viral replication (in words): inhibition of viral replication
[7]; in vivo, po
  clinical benefit, oral (in words): major clinical benefit in human, particularly neonatal medicine
[7]; orally administered
  safety, oral (in words): considered safe and without adverse effects
